Measured values: patent US5990275

Legend:
[1] = target: TAG-72 antigen on a human breast carcinoma extract (human); assay: competition RIA against 125I-labeled CC49 IgG, human breast carcinoma extract

## trypsin (enzyme)
CC49/212 single-chain Fv
  half-life (t1/2) of intact sFv, reverse phase HPLC: 3.26 h

## subtilisin BPN' (Type XXVII protease, Sigma) (from UniProt P00782) (enzyme)
CC49/212 single-chain Fv
  half-life (t1/2) of intact sFv, reverse phase HPLC: 2.05 h

## CC49/218 single-chain Fv (scFv)
[1]
  fold lower affinity than the CC49/212 sFv: 4 fold
